T1: Dopamine D1A D1A4 (Rattus norvegicus, UniProt P18901)
T1 chain: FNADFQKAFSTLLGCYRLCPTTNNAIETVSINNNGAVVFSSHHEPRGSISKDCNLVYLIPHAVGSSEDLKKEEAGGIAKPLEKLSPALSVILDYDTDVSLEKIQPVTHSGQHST

B1: otoferlin C2F (protein)
chain: DMPAPGTPLDISPRKPKKYELRVIVWNTDEVVLEDDDFFTGEKSSDIFVRGWLKGQQEDKQDTDVHYHSLTGEGNFNWRYLFPFDYLAAEEKIVMSKKESMFSWDETEYKIPARLTLQIWDADHFSADDFLGAIELDLNRFPRGAKTAKQCT
B2: snapin (protein)
chain: AAAGSAAVSGAGTPVAGPTGRDLFAEGLLEFLRPAVQQLDSHVHAVRESQVELREQIDNLATELCRINEDQKVALDLDPYVKKLLNARRRVVLVNNILQNAQERLRRLNHSVAKETARRRAMLDSGVYPPGSPSK

Experiments:
[1] = target: B2; assay: SPR
[2] = target: T1, Dopamine D1A D1A4; assay: SPR

Row | Binder | Kd [1] | Kd [2]
1 | B1 | 0.0234 µM | –
2 | B2 | – | 0.0146 µM

Source: paper PMC6310132 (2016)
